The results in this text go back to the DeepSol protein solubility set.

The nature of the data set: soluble on expression in E. coli; label from the status in PepcDB or PDB records.
For the sequence “MSAATKKRYITNKVGSEFYELVDEDIIAQVRQSRGNNLHEVLDQNGDSYVVSMPTKFRKSVWLRRDQFVVVRPITEGDKVKGEIEYILDQDNVLYIRELGKWPTCFEENALKMTREAKRGQTSDKMIDDDMLPPSESEEEDESEGEETYDEDDVDDEEEEEFDTYNPNRMQAPSK”, the “soluble on expression in E. coli” value is given as “not soluble”.
Next, “MAHHHHHHMMGISPEAVLLDFDWTASYVLATDRLSTAAMNRATARTVSMEGGADGADTKPRNSGGGMPLLQLAMDVARVAPPSEVASISPLVSPVSGVRLQLLATASSEMQGGGEGQPAERMLLPNDRLTMELDAESLDALIAALRTAVDGMDSLSGC”: “not soluble”; “MAHHHHHHMTTLEKQLQSSTLSKQCRADLLNHVEEVETNSRRLPKKMITLPDPNLPSAVTMPTDNSVKRGTRSATAGANMARSLHYTTRKREKDEMVASRITSDRNLSGTYFKDCSHKFVNGARSWSDPFRSSRSRTALSGKDMDFVYRYAEAATGSAIERPQPADDASVAATAAYRKAFRQYKGRDPTAKEMEEAGRLVYAFDENCSVGVLQKPHSCYPHTHISAVKTHIRACPNQVYLPEVPPVRAARSEFPGPIPTWSSTKRTTTMATNGTYRPGHHQAKSLKWEAVSTVVGSR”: “not soluble”; “MGSDKIHHHHHHMILDVDYVISAANITMQFGAKPLFENISVKFGNGNRYGLIGANGCGKSTFMRILSGEQEPSAGNVSLEPNIRIGKLRQDQFAYEDYSVVDAVIMGHEELWAVKEERDRIYSSGEMSEEDGMRVADLETEFAEMDGYTAESRAGELLLGLGIPVEQHFGLMSALAPGVKIRVLLAQVLFSEPDIMLLDEPTNNLDINTIRWLEGVLAEKQSTMIIISHDRHFLNTVCTHMADIDYGELRVYPGNYDEYMFAATQAREQLMSDNAKKKEKIAELQSFVSRFSANASKAKQATSRQKQMEKIQLDEVKASSRVNPYIRFTQEKKLYRLALETENVRKSFEDEAVLKGLSTSIEVGEKVAIIGANGIGKTTLLKCLMGEYTPDSGSIKWSENAAIGYYAQDHAHWFKQDMTVYEWMYQWKKPGDDEQAIRGVLGRMLFSSDDIQKPVSILSGGEKGRMIFGKLILQRPNILVMDEPTNHLDMESIESLNLALEQFEGTLLFVSHDREFVSTLATRIIEITDKGLRDFAGSYDEYLAQLAAA”: “not soluble”.
On to “MSLSPARAQEEISRLQQQIKQWDDDYWKEGKSEVEDGVYDQLSARLTQWQRCFGSEPRDVMMPPLNGAVMHPVAHTGVRKMVDKNALSLWMRERSDLWVQPKVDGVAVTLVYRDGKLNKAISRGNGLKGEDWTQKVSLISAVPQTVSGPLANSTLQGEIFLQREGHIQQQMGGINARAKVAGLMMRQDDSDTLNSLGVFVWAWPDGPQLMSDRLKELATAGFTLTQTYTRAVKNADEVARVRNEWWKAELPFVTDGVVVRAAKEPESRHWLPGQAEWLVAWKYQPVAQVAEVKAIQFAVGKSGKISVVASLAPVMLDDKKVQRVNIGSVRRWQEWDIAPGDQILVSLAGQGIPRIDDVVWRGAERTKPTPPENRFNSLTCYFASDVCQEQFISRLVWLGAKQVLGLDGIGEAGWRALHQTHRFEHIFSWLLLTPEQLQNTPGIAKSKSAQLWHQFNLARKQPFTRWVMAMGIPLTRAALNASDERSWSQLLFSTEQFWQQLPGTGSGRARQVIEWKENAQIKKLGSWLAAQQITGFEEGHHHHHH”, for which the “soluble on expression in E. coli” value is “soluble”.
Turning to “MAGFPGKEAGPPGGWRKCQEDESPENERHENFYAEIDDFAPSVLTPTGSDSGAGEEDDDGLYQVPTHWPPLMAPTGLSGERVPCRTQAAVTSNTGNSPGSRHTSCPFTLPRGAQPPAPAHQKPTAPTPKPRSRECGPSKTPDPFSWFRKTSCTEGGADSTSRSFMYQKGFEEGLAGLGLDDKSDCESEDESNFRRPSSHSALKQKNGGKGKPSGLFEHLAAHGREFSKLSKHAAQLKRLSGSVMNVLNLDDAQDTRQAKAQRKESMRVPIVTHLTNHVPVIKPACSLFLEGAPGVGKTTMLNHLKAVFGDLTIVVPEPMRYWTHVYENAIKAMHKNVTRARHGREDTSAEVLACQMKFTTPFRVLASRKRSLLVTESGARSVAPLDCWILHDRHLLSASVVFPLMLLRSQLLSYSDFIQVLATFTADPGDTIVWMKLNVEENMRRLKKRGRKHESGLDAGYLKSVNDAYHAVYCAWLLTQYFAPEDIVKVCAGLTTITTVCHQSHTPIIRSGVAEKLYKNSIFSVLKEVIQPFRADAVLLEVCLAFTRTLAYLQFVLVDLSEFQDDLPGCWTEIYMQALKNPAIRSQFFDWAGLSKVISDFERGNRD”, the “soluble on expression in E. coli” value is “not soluble”.
For “MQQEALSFLSSSLPSLHHNFPSLSRLRFNNFPALSFKPNTSSSSSSFFKSPDIPSLSSTTTTTTTTETLESSIHEKLIYLDSLGIDFLTLINRHPPLLSTALSAVESVVDYMTTPPINFTLQDFRRLVSMCPELLTSPLTSHTIPVITFLLREVGVDSIFDLRQALRRRPRLLACSVDHQLRPTLYFLQRIGILDPHKHTYLLSCSVDNKLVPRIDYFEKLGFSRRSATAMFKRFPQLFNYSIAENYEPKLKYLMVEMGRDVREVLEFPQYFSFSLENRIKPRHEACAAKGVRFPLPVMLKTNEAGFRDTLEVCCDSSPPLKTSRLVTVQKDS”, the “soluble on expression in E. coli” value is given as “not soluble”.
In the case of “LIPILGLGNYTAQVDIELDFSAVEQTRKVFDPNTPATRSEYTLEDYNNGNVVAGVPGALSNQPPADASIPQDVAQMKDGSVMGQGSVHKEATRNYELDTTISHERKQSGVINRQTVAVAVKSRSSVNPDTGEVTYTPLSEADLNSIRQVLIGTVGYSENRGDLLNVLSMPF” it was “not soluble”; in that of “GSTPHLVNLNEDPLMSECLLYHIKDGVTRVGQVDMDIKLTGQFIREQHCLFRSIPQPDGEVVVTLEPCEGAETYVNGKLVTEPLVLKSGNRIVMGKNHVFRFNH”, “soluble”; in that of “MASGKVRCTRKLRSWIVEQVESGHFPGVCWDDAAKTMFRIPWKHAGKQDFREDQDAAIFKAWALFKEKHKDGDIGHPAVWKTRLRCALNKSSEFEEVPERGRMDVAEPYKVYRILPAGTLPNQPRNQKSPCKRSISCVSPEREENMENGRTNGVVNHSDSGSNIGGGGNGSNRSDSNSNCNSELEEGAGTTEATIREDPVFLEHQLPLNSDYSLLLTFIYGGRVVGKTQVHSLDCRLVAERSDSESSMEQVEFPKPDPLEPTQHLLNQLDRGVLVASNSRGLFVQRLCPIPISWNAPEAPPGPGPHLLPSNKCVELFKTTYFCRDLAQYFQGQGPPPKFQATLHFWEESPGSSHSQENLITVQMEQAFARHLLEKIPEEEKAALFLLQHTEQSPSALGH”, “soluble”.
Next, “MFIPQIVPIRDLKNTSAISNLCHKTNEPIFITKNGYGDMVIMSMETYEGNAFFNNLYGNLEEAEMDLQNGRVSGIDEAIEEIKSRYDLEHHHHHH”: “not soluble”.
Next, “MTVNAKTSPSAGNTWRDLPAAQQPEYPDTEALRAVIADLESYPPLVFAGECDQLRARMAAVAKGEAFLLQGGDCAEAFDAVSADHIRNKLKTLLQMGAVLTYAASVPVVKVGRIAGQYSKPRSKPTETRDGVTLPTYRGDSVNGFDFTEAARIPDPERLKRMYHASASTLNLVRAFTTGGYADLRQVHAWNQDFVKSSPSGQRYEQLAREIDNALNFMRACGTDPAEFQTVEFFSSHEALLLDYESALTRVDSRTGQLYDVSGHMVWIGERTRQLDHAHIEFASRIRNPIGIKLGPSTTAEEALQYIERLDPEREPGRLTFIVRMGADKIRDKLPELVEKVTASGATVAWITDPMHGNTYEAASGHKTRRFDDVLDEVKGFFEVHKSLGTHPGGIHVELTGDDVTECVGGGDEIFVDDLHQRYETACDPRLNRSQSLDLAFLVAEMYRDQ”: “not soluble”; “MGSDKIHHHHHHPEKKVATSVPAPQKMDGEQLFEDMQLGGVVNFLAFRQAVAGYNLIKQKSKSILTLIDFTKPSTEKRLFVFDMEQKKMLYSSVVSHGKNSGENYATSFSNEVGSYKSSLGFYLTGNTYQGRNGYSLLLDGLEKGINDRARERAIVVHGAAYANPSVCKSGRLGRSFGCPALPQALTKPIINTIKGGSVLFIYANNKEYMAKSSILPNQTSQELFTEACESEQTVSVHL”: “not soluble”; “MNIRDYIRENEARFLEDLFALIRIPSVSAKSEHKPDMQRCAEHWRDHLLQVGAQKAEVFQTPGNPVVYAERIMDPKAKTILVYAHYDVMPPEPLELWKSEPFEPVIRDGHIWARGADDDKGQGMIQVKGFETALALGLVQCNVKFLFEGEEEIGSTNLEAFCRAHKEMLSADVIIVSDTSMVSAETPSLTTGLRGLAYWEMEVTGPNRDLHSGHFGGAVANPINELCKLIAGIVDENGRITIPHFYDDVVPLSDEERQMIAQVPFSEEKYCQALDIDTVFGEAGYSTLERNSCRPSFDVCGIWGGYTGEGAKTVLPSKAYAKVSSRLVANQDHEKISQMFIDYIRSVAPKHIKVKVTPLHGGEAYLCPIDLPAYKAAEEACTIAFGKRPLAVRRGGSIPIIATFEKVLGLKTVLMGFGLESNAIHSPNENMPLDIFRKGIESVAEFYRIYK”: “not soluble”.
Turning to “MGSDKIHHHHHHMSIYHDVIKSEVFPALGCTEPIAVAYAASLAAERLGAEVETVTASVDPGVFKNGFAVTVPKTGGLKGNVIAAALGALIARPELKMEILSGADERLLAQAELLVSSGRATVALVKERTDLYIDVVVTGGGRTARAVLEGGHTNIVRLECDGRILLNADEPVSAVDSHAYRAVLRQMTFSEMIGLLDDLDQGDLVYLKRGVEMNLRIAEEGKQLTKVGHYVEELVRKGFLLADVVSSSKILTASASDARMAGLPYPVMSSGGSGNQGIVAILVPYNVGMFFHVPEETILRSIALSHLVNAYIKCHTGDLAPICGCAIAAGVGAAVAIVYQQAGPDMHKIDLAVNTIISDIGGMLCDGAKGGCALKVVSSTDAAIRAAYMALNGHGISEEEGFVGKSAEETIHNLSRIADKGMALVDDTMLCIMLQKRSTEP”, the “soluble on expression in E. coli” value is reported as “not soluble”.
Next, “GMDVLQKEIDEVYATHPTAHEALDNGIVEQHQQFVRSLTEVNGGCAVISDLSNRKSYVTVHPWANFLGLTPEEAALSVIDSMDEDCIYRRIHPEDLVEKRLMEYKFFQKTFSMSPGERLKYRGRCRLRMMNEKGVYQYIDNLVQIMQNTPAGNVWLIFCLYSLSADQRPEQGIYATITQMERGEVETLSLSEEHRNILSEREKEILRCIRKGLSSKEIAATLYISVNTVNRHRQNILEKLSVGNSIEACRAAELMKLL”: “soluble”.
Next, “SSTHVAGLGLDKMKLGNPQSFLDQEEADDQQLLEPEAWKTYTERRNALREFLTSDLSPHLLKRHHARMQLLRKCSYYIEVLPKHLALGDQNPLVLPSALFQLIDPWKFQRMKKVGTAQTKIQLLLLGDLLEQLDHGRAELDALLRSPDPRPFLADWALVERRLADVSAVMDSFLTMMVPGRLHVKHRLVSDVSATKIPHIWLMLSTKMPVVFDRKASAAHQDWARLRWFVTIQPATSEQYELRFRLLDPRTQQECAQCGVIPVAACTFDVRNLLPNRSYKFTIKRAETSTLVYEPWRDSLTLHTKPEPLEGPALSHSV”: “soluble”.
Next, “MITILGAGKVGMATAVMLMMRGYDDLLLIARTPGKPQGEALDLAHAAAELGVDIRISGSNSYEDMRGSDIVLVTAGIGRKPGMTREQLLEANANTMADLAEKIKAYAKDAIVVITTNPVDAMTYVMYKKTGFPRERVIGFSGILDSARMAYYISQKLGVSFKSVNAIVLGMHGQKMFPVPRLSSVGGVPLEHLMSKEEIEEVVSETVNAGAKITELRGYSSNYGPAAGLVLTVEAIKRDSKRIYPYSLYLQGEYGYNDIVAEVPAVIGKSGIERIIELPLTEDEKRKFDEAVQAVKKLVETLPPQLRE”: “soluble”; “YALTEGEDYLVLDKPIPQEQPGKIEVLEFFGYFCVHCHHFDPLLLKLGKALPSDTYLRTEHVVWRPEMLGLARMAAAVKLSGLKYQANSAVFKAVYEQKIRLENRAVAGKWALSQKGFDGKKLMRAYDSPEAAAVALKMQKLTEQYGIDSTPTVIVGGKYRVIFNNGFDGGVHTIKELVAK”: “not soluble”.
